Target: GST-Cx46G143R loop fusion protein (intracellular loop domain of human Cx46 with the cataract mutation G143R) (human)
Assay: pull-down; GST, GST-Cx46 loop or GST-Cx46G143R loop on glutathione beads incubated with crude membrane proteins of HeLa cells expressing Cx46, rotating platform, 4°C overnight; eluted proteins blotted with anti-Cx46 and anti-GST

human connexin 46 (Cx46), wild type (from UniProt Q9Y6H8 1-435) (natural protein)
fold of Cx46 pulled down against the wild-type GST-Cx46 loop: > 2 fold

Reference: publication PMC3760834
